Source: article PMC3981736, “The Domain-Specific and Temperature-Dependent Protein Misfolding Phenotype of Variant Medium-Chain acyl-CoA Dehydrogenase” (PLoS ONE, 2014)

Biological target: the molecule itself
Experiment: SEC; re-chromatography after Factor Xa cleavage of the MBP tag; HiLoad 16/600 Superdex 200, 20 mM HEPES pH 7.0, 200 mM NaCl, 4 °C; tetrameric fraction pooled

| Protein | stoichiometry N |
| --- | --- |
| medium-chain acyl-CoA dehydrogenase (MCAD) wild-type (enzyme, human, UniProt P11310-1 26-421, looked up, medium-chain acyl-CoA dehydrogenase (MCAD), human, cDNA of the ACADM gene cloned into pMALc2X; also called WT; wild-type MCAD; source: E. coli BL21-CodonPlus, purified (MBPTrap, SEC, Factor Xa cleavage, SEC); not shown: MBP, N-terminal, cleaved) KANRQREPGLGFSFEFTEQQKEFQATARKFAREEIIPVAAEYDKTGEYPVPLIRRAWELGLMNTHIPENCGGLGLGTFDACLISEELAYGCTGVQTAIEGNSLGQMPIIIAGNDQQKKKYLGRMTEEPLMCAYCVTEPGAGSDVAGIKTKAEKKGDEYIINGQKMWITNGGKANWYFLLARSDPDPKAPANKAFTGFIVEADTPGIQIGRKELNMGQRCSDTRGIVFEDVKVPKENVLIGDGAGFKVAMGAFDKTRPVVAAGAVGLAQRALDEATKYALERKTFGKLLVEHQAISFMLAEMAMKVELARMSYQRAAWEVDSGRRNTYYASIAKAFAGDIANQLATDAVQILGGNGFNTEYPVEKLMRDAKIYQIYEGTSQIQRLIVAREHIDKYKN | 4 |
| MCAD p.Arg206Cys (enzyme, human, UniProt P11310-1 26-421, looked up, medium-chain acyl-CoA dehydrogenase (MCAD), human, ACADM cDNA in pMALc2X with a missense mutation found in newborn screening; number counts on the precursor (initiator methionine +1); also called R206C; p.Arg181Cys; source: E. coli DH5α co-transformed with pGroESL, purified (MBPTrap, SEC, Factor Xa cleavage, SEC); not shown: MBP, N-terminal, cleaved) KANRQREPGLGFSFEFTEQQKEFQATARKFAREEIIPVAAEYDKTGEYPVPLIRRAWELGLMNTHIPENCGGLGLGTFDACLISEELAYGCTGVQTAIEGNSLGQMPIIIAGNDQQKKKYLGRMTEEPLMCAYCVTEPGAGSDVAGIKTKAEKKGDEYIINGQKMWITNGGKANWYFLLACSDPDPKAPANKAFTGFIVEADTPGIQIGRKELNMGQRCSDTRGIVFEDVKVPKENVLIGDGAGFKVAMGAFDKTRPVVAAGAVGLAQRALDEATKYALERKTFGKLLVEHQAISFMLAEMAMKVELARMSYQRAAWEVDSGRRNTYYASIAKAFAGDIANQLATDAVQILGGNGFNTEYPVEKLMRDAKIYQIYEGTSQIQRLIVAREHIDKYKN | 4 |
| MCAD p.Lys329Glu (enzyme, human, UniProt P11310-1 26-421, looked up, medium-chain acyl-CoA dehydrogenase (MCAD), human, ACADM cDNA in pMALc2X with a missense mutation found in patients; number counts on the precursor (initiator methionine +1); also called K329E; p.Lys304Glu; source: E. coli DH5α co-transformed with pGroESL, purified (MBPTrap, SEC, Factor Xa cleavage, SEC); not shown: MBP, N-terminal, cleaved) KANRQREPGLGFSFEFTEQQKEFQATARKFAREEIIPVAAEYDKTGEYPVPLIRRAWELGLMNTHIPENCGGLGLGTFDACLISEELAYGCTGVQTAIEGNSLGQMPIIIAGNDQQKKKYLGRMTEEPLMCAYCVTEPGAGSDVAGIKTKAEKKGDEYIINGQKMWITNGGKANWYFLLARSDPDPKAPANKAFTGFIVEADTPGIQIGRKELNMGQRCSDTRGIVFEDVKVPKENVLIGDGAGFKVAMGAFDKTRPVVAAGAVGLAQRALDEATKYALERKTFGKLLVEHQAISFMLAEMAMEVELARMSYQRAAWEVDSGRRNTYYASIAKAFAGDIANQLATDAVQILGGNGFNTEYPVEKLMRDAKIYQIYEGTSQIQRLIVAREHIDKYKN | 4 |
| MCAD p.Arg413Ser (enzyme, human, UniProt P11310-1 26-421, looked up, medium-chain acyl-CoA dehydrogenase (MCAD), human, ACADM cDNA in pMALc2X with a missense mutation found in newborn screening; number counts on the precursor (initiator methionine +1); also called R413S; p.Arg388Ser; source: E. coli DH5α co-transformed with pGroESL, purified (MBPTrap, SEC, Factor Xa cleavage, SEC); not shown: MBP, N-terminal, cleaved) KANRQREPGLGFSFEFTEQQKEFQATARKFAREEIIPVAAEYDKTGEYPVPLIRRAWELGLMNTHIPENCGGLGLGTFDACLISEELAYGCTGVQTAIEGNSLGQMPIIIAGNDQQKKKYLGRMTEEPLMCAYCVTEPGAGSDVAGIKTKAEKKGDEYIINGQKMWITNGGKANWYFLLARSDPDPKAPANKAFTGFIVEADTPGIQIGRKELNMGQRCSDTRGIVFEDVKVPKENVLIGDGAGFKVAMGAFDKTRPVVAAGAVGLAQRALDEATKYALERKTFGKLLVEHQAISFMLAEMAMKVELARMSYQRAAWEVDSGRRNTYYASIAKAFAGDIANQLATDAVQILGGNGFNTEYPVEKLMRDAKIYQIYEGTSQIQRLIVASEHIDKYKN | 4 |
| MCAD p.Ala52Val (enzyme, human, UniProt P11310-1 26-421, looked up, medium-chain acyl-CoA dehydrogenase (MCAD), human, ACADM cDNA in pMALc2X with a missense mutation found in newborn screening; number counts on the precursor (initiator methionine +1); also called p.Ala27Val; A27V; source: E. coli DH5α co-transformed with pGroESL, purified (MBPTrap, SEC, Factor Xa cleavage, SEC); not shown: MBP, N-terminal, cleaved) KANRQREPGLGFSFEFTEQQKEFQATVRKFAREEIIPVAAEYDKTGEYPVPLIRRAWELGLMNTHIPENCGGLGLGTFDACLISEELAYGCTGVQTAIEGNSLGQMPIIIAGNDQQKKKYLGRMTEEPLMCAYCVTEPGAGSDVAGIKTKAEKKGDEYIINGQKMWITNGGKANWYFLLARSDPDPKAPANKAFTGFIVEADTPGIQIGRKELNMGQRCSDTRGIVFEDVKVPKENVLIGDGAGFKVAMGAFDKTRPVVAAGAVGLAQRALDEATKYALERKTFGKLLVEHQAISFMLAEMAMKVELARMSYQRAAWEVDSGRRNTYYASIAKAFAGDIANQLATDAVQILGGNGFNTEYPVEKLMRDAKIYQIYEGTSQIQRLIVAREHIDKYKN | 4 |
| MCAD p.Tyr67His (enzyme, human, UniProt P11310-1 26-421, looked up, medium-chain acyl-CoA dehydrogenase (MCAD), human, ACADM cDNA in pMALc2X with a missense mutation found in newborn screening; number counts on the precursor (initiator methionine +1); also called Y67H; p.Tyr42His; source: E. coli DH5α co-transformed with pGroESL, purified (MBPTrap, SEC, Factor Xa cleavage, SEC); not shown: MBP, N-terminal, cleaved) KANRQREPGLGFSFEFTEQQKEFQATARKFAREEIIPVAAEHDKTGEYPVPLIRRAWELGLMNTHIPENCGGLGLGTFDACLISEELAYGCTGVQTAIEGNSLGQMPIIIAGNDQQKKKYLGRMTEEPLMCAYCVTEPGAGSDVAGIKTKAEKKGDEYIINGQKMWITNGGKANWYFLLARSDPDPKAPANKAFTGFIVEADTPGIQIGRKELNMGQRCSDTRGIVFEDVKVPKENVLIGDGAGFKVAMGAFDKTRPVVAAGAVGLAQRALDEATKYALERKTFGKLLVEHQAISFMLAEMAMKVELARMSYQRAAWEVDSGRRNTYYASIAKAFAGDIANQLATDAVQILGGNGFNTEYPVEKLMRDAKIYQIYEGTSQIQRLIVAREHIDKYKN | 4 |
| MCAD p.Asp266Gly (enzyme, human, UniProt P11310-1 26-421, looked up, medium-chain acyl-CoA dehydrogenase (MCAD), human, ACADM cDNA in pMALc2X with a missense mutation found in newborn screening; number counts on the precursor (initiator methionine +1); also called D266G; p.Asp241Gly; source: E. coli DH5α co-transformed with pGroESL, purified (MBPTrap, SEC, Factor Xa cleavage, SEC); not shown: MBP, N-terminal, cleaved) KANRQREPGLGFSFEFTEQQKEFQATARKFAREEIIPVAAEYDKTGEYPVPLIRRAWELGLMNTHIPENCGGLGLGTFDACLISEELAYGCTGVQTAIEGNSLGQMPIIIAGNDQQKKKYLGRMTEEPLMCAYCVTEPGAGSDVAGIKTKAEKKGDEYIINGQKMWITNGGKANWYFLLARSDPDPKAPANKAFTGFIVEADTPGIQIGRKELNMGQRCSDTRGIVFEDVKVPKENVLIGGGAGFKVAMGAFDKTRPVVAAGAVGLAQRALDEATKYALERKTFGKLLVEHQAISFMLAEMAMKVELARMSYQRAAWEVDSGRRNTYYASIAKAFAGDIANQLATDAVQILGGNGFNTEYPVEKLMRDAKIYQIYEGTSQIQRLIVAREHIDKYKN | 4 |
| MCAD p.Tyr158His (enzyme, human, UniProt P11310-1 26-421, looked up, medium-chain acyl-CoA dehydrogenase (MCAD), human, ACADM cDNA in pMALc2X with a missense mutation found in newborn screening; number counts on the precursor (initiator methionine +1); also called Y158H; p.Tyr133His; source: E. coli DH5α co-transformed with pGroESL, purified (MBPTrap, SEC, Factor Xa cleavage, SEC); not shown: MBP, N-terminal, cleaved) KANRQREPGLGFSFEFTEQQKEFQATARKFAREEIIPVAAEYDKTGEYPVPLIRRAWELGLMNTHIPENCGGLGLGTFDACLISEELAYGCTGVQTAIEGNSLGQMPIIIAGNDQQKKKYLGRMTEEPLMCAHCVTEPGAGSDVAGIKTKAEKKGDEYIINGQKMWITNGGKANWYFLLARSDPDPKAPANKAFTGFIVEADTPGIQIGRKELNMGQRCSDTRGIVFEDVKVPKENVLIGDGAGFKVAMGAFDKTRPVVAAGAVGLAQRALDEATKYALERKTFGKLLVEHQAISFMLAEMAMKVELARMSYQRAAWEVDSGRRNTYYASIAKAFAGDIANQLATDAVQILGGNGFNTEYPVEKLMRDAKIYQIYEGTSQIQRLIVAREHIDKYKN | 4 |
| MCAD p.Arg334Lys (enzyme, human, UniProt P11310-1 26-421, looked up, medium-chain acyl-CoA dehydrogenase (MCAD), human, ACADM cDNA in pMALc2X with a missense mutation found in newborn screening; number counts on the precursor (initiator methionine +1); also called R334K; p.Arg309Lys; source: E. coli DH5α co-transformed with pGroESL, purified (MBPTrap, SEC, Factor Xa cleavage, SEC); not shown: MBP, N-terminal, cleaved) KANRQREPGLGFSFEFTEQQKEFQATARKFAREEIIPVAAEYDKTGEYPVPLIRRAWELGLMNTHIPENCGGLGLGTFDACLISEELAYGCTGVQTAIEGNSLGQMPIIIAGNDQQKKKYLGRMTEEPLMCAYCVTEPGAGSDVAGIKTKAEKKGDEYIINGQKMWITNGGKANWYFLLARSDPDPKAPANKAFTGFIVEADTPGIQIGRKELNMGQRCSDTRGIVFEDVKVPKENVLIGDGAGFKVAMGAFDKTRPVVAAGAVGLAQRALDEATKYALERKTFGKLLVEHQAISFMLAEMAMKVELAKMSYQRAAWEVDSGRRNTYYASIAKAFAGDIANQLATDAVQILGGNGFNTEYPVEKLMRDAKIYQIYEGTSQIQRLIVAREHIDKYKN | 4 |
